27 sequences from the supplement of paper PMC9170038 can be followed below.

In this data set the test system is MS2 coat protein. The experiment in a line: apparent KD of MS2 coat protein; higher = weaker reporter binding. To be noted: Eterna round: R107. The method in brief: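 For every design, apparent KD is the median of normalised binding-curve fits from its clusters. The RNA switches were transcribed on-chip from Illumina sequencing clusters and titrated with SNAP-549-labelled MS2 coat protein (twofold steps, 0.7 or 1.5 nM to 3 µM; 0.8–1.5 h to 10–20 min per step). Titrations used 100 mM Tris-HCl pH 7.5, 80 mM KCl, 4 mM MgCl2, without or with constant ligand.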

Setting [1] is: input ligand: theophylline 20 uM.
[2] abbreviates: input ligand: theophylline 2 mM.
[3] abbreviates: input ligand: tryptophan 2.4 mM.

For the sequence “CUCCCGUGGUCGGCCGCCACUGGAGGCCUCGCGCGACAUGAGGAUCACCCAUGUUGGCCCGGCGUCAGGACCGGGAUCGCGUGAG [#1 Same State - Tryptophan B Attempt #9 (HarryS)]”, the “apparent KD of MS2 coat protein” value (input ligand: arginine 13.2 mM) came out at 11.8 nM; the “apparent KD of MS2 coat protein” value (input ligand: none) worked out at 11 nM; the “apparent KD of MS2 coat protein” value under setting [1] was found to be 10.3 nM; the “apparent KD of MS2 coat protein” value under setting [2] was found to be 12.1 nM; the “apparent KD of MS2 coat protein” value under setting [3] amounted to 10.8 nM.
Regarding “CUCCCGUGGUCGGCCGCCACUGGAGGCCUUGCGCGACAUGAGGAUCACCCAUGUUGGCCCGGCGUCAGGACCGGGAUCGCGUGAG [#1 Same State - Tryptophan B Attempt #10 (HarryS)]”, the “apparent KD of MS2 coat protein” value is 8.86 nM (input ligand: arginine 13.2 mM); 14.4 nM (input ligand: none); 18.8 nM under setting [1]; 12.2 nM under setting [2]; 10.1 nM under setting [3].
Turning to “CUGUACAUCUCGGCCGCCACUGCAACAUGUACACAUGGACAUGUACAUGAGGAUCACCCAUGUGGCAGGACCGGGAGGUGUGCAG [SSTryp B #28]”, the “apparent KD of MS2 coat protein” value by setting is: (input ligand: arginine 13.2 mM) 99.8 nM; under setting [1], 211 nM; under setting [2], 309 nM.
For the sequence “CUGUACAUCUCGGCCGCCACUGCUGACAUGGGAGUCACCCAUGUCCACAUGAGGAUCACCCAUGUCAGGACCGGGAGGUGUGCAG [SSTryp B #25]”, the “apparent KD of MS2 coat protein” value is, setting by setting: (input ligand: arginine 13.2 mM) 87.4 nM; under setting [1], 272 nM; under setting [2], 287 nM.
As to “CUUGGCUGUGCGGCCGCCACUGACUCAUCCUGCAUUACAUGAGGAUCACCCAUGUUGCGGCCUCCCAGGACCGGGCAUAGCCUGC [Veered]”, the “apparent KD of MS2 coat protein” value (input ligand: arginine 13.2 mM) was determined as 102 nM, the “apparent KD of MS2 coat protein” value under setting [1] amounted to 397 nM and the “apparent KD of MS2 coat protein” value under setting [2] stood at 673 nM.
Turning to “GAAGGAACCGGAAGGAGCGGGUCCUUAGCCACUACAUGAGGAUCACCCAUGUCCGGGAGGUCCCAGGUAGGUCGCCGGUCUUAAA [Gelece]”, the “apparent KD of MS2 coat protein” value reads like this: (input ligand: arginine 13.2 mM) 63.9 nM; (input ligand: none) 277 nM; under setting [1], 324 nM; under setting [2], 934 nM; under setting [3], 267 nM.
Turning to “GAAGGAGAGUGAUCCACUCCUUCUCUGGAAGGAGCGAGCGAAAGCUCAGGUAGGUCGCCAGAAACAUGAGGAUCACCCAUGUAAU [(A)''-(M)'-(A)'-(Arg1)-(Arg2)-(M1)-(M2)_Design7]”, the “apparent KD of MS2 coat protein” value runs as follows: (input ligand: arginine 13.2 mM) 61.2 nM; (input ligand: none) 104 nM; under setting [1], 92.6 nM; under setting [2], 123 nM; under setting [3], 82.3 nM.
Turning to “GACAUGAGGAUCACCCAUGUACCGCGAGAAGGAGCGCGGAUAAACGCAGGUAGGUCGCUCGUGGGCUUUUAUUCAAUCGAAAGCU [Zaesar]”, the “apparent KD of MS2 coat protein” value reads like this: (input ligand: arginine 13.2 mM) 26.8 nM; (input ligand: none) 50.5 nM; under setting [1], 106 nM; under setting [2], 165 nM; under setting [3], 48 nM.
With “GACCGGUUAUAGUGCGAUUGUCUUGUGGAAGGAGCGCAGAGGACUGCAGGUAGGUCGCCACAUGAGGAUCACCCAUGUCAGGAUA [Tirevete]”, the “apparent KD of MS2 coat protein” value is 33.8 nM (input ligand: arginine 13.2 mM); 23.7 nM (input ligand: none); 33.4 nM under setting [1]; 43.9 nM under setting [2]; 22.3 nM under setting [3].
Turning to “GACGCAUGAGUUGUAAAAGCUCAUGGGUCGCGAGGACCGGUACGGCCGCCACUCGGCUGUACAUGAGGAUCACCCAUGUCAGGGU [#1 Same State - Tryptophan A Attempt #28 (HarryS)]”, the “apparent KD of MS2 coat protein” value reads like this: (input ligand: arginine 13.2 mM) 154 nM; under setting [1], 434 nM; under setting [2], 886 nM.
With “GACGCAUGAGUUGUAACAGCUCAUGGGUCGCGAGGACCGGUACGGCCGCCACUCGGCUGUACAUGAGGAUCACCCAUGUCAGGGU [#1 Same State - Tryptophan A Attempt #29 (HarryS)]”, the “apparent KD of MS2 coat protein” value runs as follows: (input ligand: arginine 13.2 mM) 24.7 nM; (input ligand: none) 346 nM; under setting [1], 1320 nM; under setting [2], 1310 nM; under setting [3], 451 nM.
With “GAGACAUCGGGAAGGAGCGCAUCCAAACCACACAUGAGGAUCACCCAUGUAUAAAUAUGCAUGCAGGUAGGUCGCCCGGUAUCCC [Tiisqure]”, the “apparent KD of MS2 coat protein” value amounted to 26.5 nM (input ligand: arginine 13.2 mM); 27.8 nM (input ligand: none); 40.2 nM under setting [1]; 35 nM under setting [2]; 28.9 nM under setting [3].
For the sequence “GAGCUCGUGGACUGGCGUGCUCCGCUCCGUCGAGGACCGGUACGGCCGCCACUCGACAUGAGGAUCACCCAUGUGCGAGCUCGCU [#1 Exclusion - Tryptophan A Attempt #22 (HarryS)]”, the “apparent KD of MS2 coat protein” value (input ligand: arginine 13.2 mM) stood at 11.4 nM; the “apparent KD of MS2 coat protein” value (input ligand: none) was determined as 46.2 nM; the “apparent KD of MS2 coat protein” value under setting [1] turned out to be 113 nM; the “apparent KD of MS2 coat protein” value under setting [2] amounted to 117 nM; the “apparent KD of MS2 coat protein” value under setting [3] is 21.4 nM.
With “GAGUCCGCGGCGGCCGCCACUCGCGGCGCCACAUGGCGCCGGGACAUGAGGAUCACCCAUGUCCCGAGGACCGGGCCGAUCCUCA [Same State Typrtophan B GF4]”, the “apparent KD of MS2 coat protein” value was 16.6 nM (input ligand: arginine 13.2 mM); 18.1 nM (input ligand: none); 35.6 nM under setting [1]; 33.9 nM under setting [2]; 14.5 nM under setting [3].
“GAUAGUUGAAGGGAUACCAGCCUGGACAUGAGGAUCACCCAUGUAGCAUGUUUGAAACUGGGCCCUUGGCAGCCCAUAUUGUGUA [#11 Same State - Theophylline B]”: the “apparent KD of MS2 coat protein” value is 16.6 nM (input ligand: arginine 13.2 mM), 25.4 nM under setting [1] and 22.8 nM under setting [3].
In the case of “GAUCCGUACCAGACCUUCAAUGGACUCAGUCGAGGACCGGUACGGCCGCCACUCGGAGAAGAACAUGAGGAUCACCCAUGUGAUG [theeternabot_exclusion_MS2_Trp_A_36]”, the “apparent KD of MS2 coat protein” value was 23.9 nM (input ligand: arginine 13.2 mM), 47 nM under setting [1] and 34.9 nM under setting [2].
Turning to “GAUUGGUAUAGAAGGAGCGUCGAAAAUGGGUAAACAUGAGGAUCACCCAUGUAAAGGGAACGACAGGUAGGUCGCUAUAUUAAUC [AstromonsSSArgB#30]”, the “apparent KD of MS2 coat protein” value is, setting by setting: (input ligand: arginine 13.2 mM) 146 nM; (input ligand: none) 174 nM; under setting [1], 256 nM; under setting [2], 272 nM; under setting [3], 200 nM.
With “GCACCAGGUACGGAUACCAGAAUUUGCCAAUUGGGUGAACAUGAGGAUCACCCAUGUUAUUUCCCUUGGCAGCCGUACCUGGUGC [ETB NP+V+V2 #10]”, the “apparent KD of MS2 coat protein” value is, setting by setting: (input ligand: arginine 13.2 mM) 8.88 nM; under setting [1], 13.2 nM; under setting [3], 9.45 nM.
Turning to “GCACCAGGUACGGAUACCAGACAUUGCCGUUAGGGUGAACAUGAGGAUCACCCAUGUUUUGUCCCUUGGCAGCCGUACCUGGUGC [ETB NP+V+V2 #7 Same Structure]”, the “apparent KD of MS2 coat protein” value worked out at 9.58 nM (input ligand: arginine 13.2 mM); 9.57 nM (input ligand: none); 14.7 nM under setting [1]; 86.5 nM under setting [2]; 9.85 nM under setting [3].
Regarding “GCACCAGGUACGGAUACCAGCUAUAGGCCCAAUGGGCGACAUGAGGAUCACCCAUGUAAUGGCCCUUGGCAGCUGUACCUGGUGC [SSThB NP+V+V2 #11 +-Same Structure]”, the “apparent KD of MS2 coat protein” value by setting is: (input ligand: arginine 13.2 mM) 61.6 nM; under setting [1], 67.2 nM; under setting [3], 99.8 nM.
“GCACGACAUGAGGAUCACCCAUGUGCAGAUACCAGUAGGAUAUCCUACCCUUGGCAGCUGAGUGGAUCCGGAGGACCAUGGGUAA [Same State Theophylline A GF8]”: the “apparent KD of MS2 coat protein” value stood at 32.8 nM (input ligand: arginine 13.2 mM), 61.7 nM under setting [1] and 34.7 nM under setting [3].
As for “GCAUCCUAGUCGGCCGCCACUGCAACAUGAGGAUCACCCAUGUCAGGCCUCAUGUGUCCUGGUAGCAGGACCGGGACUAGGAUGC [(T1)-(M1)-(M2)-(T)''-(M)'-(T)'-(T2)_Design4_2/18/17]”, the “apparent KD of MS2 coat protein” value is, setting by setting: (input ligand: arginine 13.2 mM) 34 nM; under setting [1], 47.1 nM; under setting [2], 52 nM.
In the case of “GCCGCGGCCGCGAUACACAUGGGUGUGUAACGAGGACCGGUACGGCCGCCACUCGAGAUGGUGCACAUGAGGAUCACCCAUGUGC [Exclusion Tryp A GF15]”, the “apparent KD of MS2 coat protein” value came out at 10.3 nM (input ligand: arginine 13.2 mM); 14.9 nM (input ligand: none); 14.1 nM under setting [1]; 19.3 nM under setting [2]; 12.1 nM under setting [3].
In the case of “GCCUCCAGCCGAAGGAGCGCUAGAAGGUGACAUGAGGAUCACCCAUGUGUGUGAUGUGGCUAGCAGGUAGGUCGCGGAGGAGGCA [Exclusion - Arginine B (Freestyle 22)]”, the “apparent KD of MS2 coat protein” value came to 53.7 nM (input ligand: arginine 13.2 mM); 109 nM (input ligand: none); 105 nM under setting [1]; 74.1 nM under setting [2]; 74.8 nM under setting [3].
In the case of “GCGGGACUUUCGGCCGCCACUGAGAGAGUCGUGUGAACAUGAGGAUCACCCAUGUAAUAUAUAUACAGGACCGGGAGGGUUGCGC [4.Q]”, the “apparent KD of MS2 coat protein” value (input ligand: arginine 13.2 mM) was 5.64 nM; the “apparent KD of MS2 coat protein” value (input ligand: none) was determined as 13.4 nM; the “apparent KD of MS2 coat protein” value under setting [1] is 17.2 nM; the “apparent KD of MS2 coat protein” value under setting [2] came out at 14.7 nM; the “apparent KD of MS2 coat protein” value under setting [3] was 12.8 nM.
As for “GCUACAUGAGGAUCACCCAUGUCAGCUACACGAGGACCGGUACGGCCGCCACUCGGUAGCGCUCAUCCUCGUGUGUAAGUCAAGU [Xedier]”, the “apparent KD of MS2 coat protein” value (input ligand: arginine 13.2 mM) was found to be 48.2 nM; the “apparent KD of MS2 coat protein” value (input ligand: none) stood at 81.6 nM; the “apparent KD of MS2 coat protein” value under setting [1] is 116 nM; the “apparent KD of MS2 coat protein” value under setting [2] was 97.5 nM; the “apparent KD of MS2 coat protein” value under setting [3] amounted to 23.5 nM.
“GCUACAUGAGGAUCACCCAUGUGUACUGAAGGAGCGGCGAAAACGCCAGGUAGGUCGCAGUAUGUGGCUCUGGGCACGAGAUGGC [#02 Same State - Arginine A]”: the “apparent KD of MS2 coat protein” value by setting is: (input ligand: arginine 13.2 mM) 27 nM; (input ligand: none) 37.3 nM; under setting [1], 40 nM; under setting [2], 41.3 nM; under setting [3], 30.5 nM.
